The source of these data is patent US20030008808.

This series has as its system 30S ribosomal subunit (activated, mRNA-programmed; ribonucleoprotein). Briefly: filter. The conditions noted are these: CMN buffer.

pKd: −log10 of the molar value.

Substance human ASLLys3(SUU) gave a pKd (s2U at position 34, poly(A)-programmed, also bound poly(AG)-programmed, 20 mM MgCl2) of 6.75. The substance native E. coli tRNALys(SUU) had a negative-log Kd (pKd) (native modifications incl. mnm5s2U34, poly(A)-programmed, 20 mM MgCl2, 100 mM NH4Cl, pH 7.2, 37 C then ice) of 7.15.

As to native yeast tRNAPhe(GmAA), the negative logarithm of the Kd (pKd) (native modifications incl. Gm34, poly(U)-programmed, 20 mM MgCl2) was 6.99. Substance yeast ASLPhe(GAA) had a negative logarithm of the Kd (pKd) (poly(U)-programmed, 20 mM MgCl2) of 6.87.
